What was measured:
[1] = molecular target: 2-oxoglutarate:ferredoxin oxidoreductase from Magnetococcus marinus MC-1, αβ heterodimer (catalytic unit) (Magnetococcus marinus MC-1)
[2] = substrate: CC(C)(COP(=O)(O)OP(=O)(O)OC[C@H]1O[C@@H](n2cnc3c(N)ncnc32)[C@H](O)[C@@H]1OP(=O)(O)O)[C@@H](O)C(=O)NCCC(=O)NCCS; assay: steady-state 2-oxoglutarate oxidation assay; assay type: biochemical, Magnetococcus marinus; conditions: pH 8.5, 2-oxoglutarate oxidation direction
[3] = substrate: O=C(O)CCC(=O)C(=O)O; assay: steady-state 2-oxoglutarate oxidation assay; assay type: biochemical, Magnetococcus marinus; conditions: pH 8.5, apparent KM

Magnetococcus marinus MC-1 ferredoxin 1 (natural protein)
KM of WT MmOGOR for MmFd1, CO2 reduction, pH 7.0 [1]: 1.3 μM

B1: MmOGOR (Magnetococcus marinus MC-1) (protein)
chain 1: MEKKDLIIRVAGEGGEGIISSGDFIAAACARAGLEVYTFKTFPAEIKGGYAMYQVRASSEKLYCQGDTFDVFCAFNGEAYEQNKDKIKPGTAFVYDYPGGDFEPDEIPEGVFAYPIPMSQTAKEMKSYRSKNMVALGALSELFNISENTLKEVLSDKFGKKGEEVLAFNLEAFDKGKALAKALTKADPFRVADPQEPKDVIIMAGNDAVGLGGILGGLEFFSAYPITPATEVAKYVATHLPKCGGDLVQAEDEIASIAQVLGASYAGKKSMTATSGPGLALMSEMLGMAHMSETPCLVVDVQRGGPSTGLPTKHEQSDLFLAIHGGHGDSPRIVLSVEDVKDCISMTVDGLNLAEKYQAPVIVLSDGSLAFSTQTIPRPKPEDFTIINRKTWDGQGTYKRYELTEDNISPMAAPGTPNAKHIATGLEHGETGAPNYSPANHELMHRKRFNKQNSVLDFYKNMEVEGVEGEADVGIITWGSTIGVVREAMQRLTAEGLKVKAMYPKLLWPMPVADYDAFGATCKKVIVPEVNFQGQLSHFIRAETSIKPIPYTICGGLPFTPEMIVNRVKEEIQ
chain 2: MTVEAFHKMENMKPKDYKSEVPTTWCPGCGHFGILNGVYRAMAELGIDSTKFAAISGIGCSSRMPYFVDSYKMHTLHGRAGAVATGTQVARPDLCVVVAGGDGDGFSIGGGHMPHMARKNVNMTYVLMDNGIYGLTKGQYSPTSRPEMTAYTTPYGGPENPMNPLLYMLTYGATYVAQAFAGKPKDCAELIKGAMEHEGFAYVNIFSQCPTFNKIDTVDFYRDLVEPIPEDHDTSDLGAAMELARRPGGKAPTGLLYKTSAPTLDQNLAKIRERLGGHVGYDKNKIIALAKP
Km [2]: 6.8 µM
kcat [2]: 24.7 s⁻¹
kcat/Km [2]: 3.6e+06 M⁻¹ s⁻¹
Km [3]: 4.4 mM
kcat [3]: 30.3 s⁻¹
kcat/Km [3]: 6900 M⁻¹ s⁻¹
